Experiment: protease stability score; higher = more stable; yeast display proteolysis, trypsin and chymotrypsin;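 further: relative to predicted unfolded state with 0 unfolded-like and 1 meaning tenfold more protease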
With “TEMLEEALRFVEQLIKAILTGDESVFRNLVDPNAKNEIDGVEIHGWEFLNVFHKRYDHVTHLHFVLRSVRVYGDKLEMHGVVEIHGVIDGQERNFEVDTEIHVEKINGQWILRSLYVR” the protease stability score was 1.11. Sequence “DEWDEMLHEWAERIIKHFITGDWESFVKMADPHVRLHVDGKDFIGRERMEEAFKELLERLGVDHVELHHVRVINGQNDVDEDVKVGNKRLKVIHHLVVYNGRIKSIEIETR” has a protease stability score of 1.39. In the case of “DEHHEFSRTATEMWIHFMETGDEHDLRNLIDPNVKTKVGDKHHHGREFLVKWLLTFMERADHVEIRLNDIKLQGDKIHIEGRLIIIVGDKEIHIHVERDIIKVNGRWVVHSVIFR”, the protease stability score is reported as 1.21. With “NEEKELWHKDIEDLQRDWKTGDEDSVREQLDPDVRLDINGVEIIGMEEATRFIIELMREIRIHVNLERIIIQGDKIILHGNLVVEQGDKHHITRQTIDARKVDGRWFEHKVRVE” the protease stability score was -0.033. “DEEEEHSKNFLRLWINLWLTGDWRNLLKLADPNAKVVINGVRIHGMEFLVRLLHEEMEQVKNMRIHIHDRRLQGDKSTEILILHFDGVFYETRFHIDIVNGKVRRFQEERE” showed a protease stability score of 0.181. In the case of “SEDHEVARDIMEILLHLYLTGNEEDLKQFFDPHVRLVIGDKNIHGREEVVNHLKRILDRIPNVRVKHFTLHDIRIIGDKIYLNTEIHVKINGRDHRSETRWVILKVDGVWHLHSVEVG”, the protease stability score is reported as 2.05. With “SEEDELNHRISHLLTRMRRTGDEDTWHRLADPNMRLEINGVISHGREEALRILSEVDDILGIDRFSVHLDRYTWDGNYIHNDMTFEINGRDLRVHVDSLVINGRMHHERVRVE” the protease stability score was -0.516. “DEDEERARHHLEEIIKTIHTGDENLYEKLVDPNAWMDINGRELHGREEVVKYWSHEAHRFGIDVIRLRHEERVGNYVHSDTDLEVNGKTIKTRLVMLKINGKWVIQSFEMH” gave a protease stability score of 0.75. With “DELERLVEDLVRILLEILLTGDWKILMRLMDPDARFIYGDKQRVGMEEVIKELHRLKEEIRINSIEIKRVEIQGDWVHVDGRSDVEVGDKRRSTEVRYHFHVFNGRMRRINIEVE” the protease stability score was 1.12. For “REDEEMAEKISEFIFHVLETGDEKSNHENIDPNARTHIGDKHSHGRENVTRMMDWWMHFLGVKHIEKKDLEIQGNFAFLHSISVVGDKTFEIDVTALKVNGQWVFKKFQVN”, the protease stability score was 1.64. In the case of “SEDEELIRRFLDEFEKVIRTGNETELQRLMDPNTRFEIDGVEYHGREEVSNLLIDWAKELRLHSLHFRHIELQGEKIKIDTRENREVDGKRHVRRTEIILIKIDGRWYLHSMRYE”, the protease stability score is reported as 1.98. Work on “SEDNEHLRKFLEDFIRAMETGDWKMLFRLMDPNVRMEVNGRELHGREEAKKLIEEIISRYDHVHIEIKRAHSIGDKIEVWGISDVEIGDKKHEIPLLFILKKVDGKWIIHSIRSE” yielded a protease stability score of 2.11. Work on “SEDEELVELMMKLIMELRKTGDEESIRRLADPNVRLDFNGRDNHGREHATKWIRDIVEHLRLRRFEIHNVEFQGNKAVVRSRIIMDWDGQDFHLDVIIILNKFNGRWFIHSQIVH” yielded a protease stability score of 1.49. In the case of “SEDDHELEKLIRLWYDSVLTGDERTINELFDPNTRLEINGKVLHGMENFHRFVHTFLHHIRLKRIEIEDIKYINGVAHIDSRMVGDINGKDVRYETQFLVQKVDGKWVIKAVIIR”, the protease stability score is reported as 2.08. With “DEEERHTHEWFKELLHNLQTGDEDRFRQMADPNVQILVDGVEYIGREHAAHWMIIHIRHLRIEHEHDEEIRVFDGRIDVRHIRVGSYGDKRTDTRVHIDVNIIDGRIKFLRIHYS” the protease stability score was 0.869. In the case of “DEEKERMEELLRLWVEAVRTGDEETLHKLMDPDVRIEYGDKDHHGREEMHRMMREWYERVDVINTYHVRRIKIVDGKARVDAELDGTIDGKRVIFREILISSKYNGQWTVTSISIK”, the protease stability score is reported as 1.43. For “SEDREQVHRFFEQFSRDTLTGNEERNFEMADPHTRFDIDGRIIIGRDIILHHWKEEMRKHGAEMKIHIHHVRVQGDKATVDLRVEIHINGRTYEYKVVMIVEKIDGRWVLTQIKYE”, the protease stability score was 0.365. “DEEKKEIQKAVDLMRHLLVTGDENTLHHLLDPNVRLIVGDKFFHGREELIRVWSEEIESMGFDHVEMHVRHVRVIGDKADVQMEIRFDVNGREHSREFRVRLRKIDGQWVIKSIEIR” gave a protease stability score of 2.15. “TEEEELEEKIARRFLTIWLTGDEERLRELADPNVRLEIDINGVTLEYHGRDELAHMFDHELKKLGFKHLHLESLRVINGVVHSNVRITFNGQERESKIINIVINGRLHTLILRWE” showed a protease stability score of 1.41. “SELEEQVKYALELFIRTFETGDEDLSSQLLDPNTRLEINGREIHGRELVSKFWLKFATEMRLRRTHTRSIRNVDGKAINHTTIDVEIGDKRTTIDVELIAYKFDGRWVNEKIQFH” showed a protease stability score of 0.828. “DEEHEWAQRIIEYLSKNEKTGDEDSARELADPNMRFEIDGVEIVGMETWVRRFLELRVEDLTMDVEHIHVQGNFVHIQTRLELHGHINGRRTRYTTTMRLFVLKINGKWIITHVKYE” gave a protease stability score of 1.45. In the case of “SEEEEHIREFWNLLLRAYRTGDEKQLRELFDPHVRIHINGKEIHGMEDMIRHIREIRVIITHLELREFSFFNGRAHVDGERDLRITVGEFHRSHRTDVTIITEKVNGQWRIEEVRVH”, the protease stability score is reported as 1.46. For “TEEDEHSRVAIEQTIRTLETGDEKEWERELDPHVRINIGEKHFHGRERAVELWLRLGVKHFRIKEVEHQGNKIIVHGSINVNGVKIEMYSIAEKIDGKWHLTHMHIP”, the protease stability score was 1.53. With “DEDDEDSEEASRRMVETHLTGDEDKQSKMMDPNVKFLFNGVEFHGWELLHKIWTEFGIKHHQLKSVEVRNINGQVRVHVDGVIDVNGVSLKSELNFVAEKVDGRWRVKRIEIHIR” the protease stability score was 1.58. “SEDEEHSRIFVQLFQRAVETGDEDRMLQLMDPDARVHIGDKTYHGMFQFVRWLHDQLKRFKNIRIEWRLTEIDVFENHIIIKGELRLKAEGVDHIHNVIIYVNKINGRWIVHHMEIR” showed a protease stability score of 1.52. “DEEEKESEEAFRIHKEVLETGDEHLIERMLDPNTRIIIGDKNIHGRESALETMIKLGVKHVHIRRWNDFNGRAENDVQMRFNGRTHEVHLFALKFNGRWLMHEIEFR” gave a protease stability score of 1.25. For “DEDDEAAEMAVRFFIEILLTGNENIHSKLLDPNVKVNIGEFESIGRKEVEKTFKEFVHHMWIRHIEVHKWSVYDGQVDVESRLDGQVNGQHVNVEVLIIIVKINGKWFLRSLDFR”, the protease stability score was 1.71. In the case of “DEKERESEEFIRRFISVYETGDWKTMFELADPHTRMIDIVNGRDIEIIGREAIRHIFEERMRLLGIKHFHIDHSSRQGNKYHQKVTIRVDGQEIEAHVHVIVVDGVLKQIEVRSK”, the protease stability score is reported as 1.06. For “TEEEEDLKEVLRVELETWHTGNWDEMRRLLDPHARLIFDGQTFHGRELAVKFFQELLTRFDVLHIIPQSVSVYNGRVEIHEEMHEVVDGQTIRRTYHVRSSKINGRWSVEVLVIQ”, the protease stability score was 0.443. In the case of “DEHDKFVEEMARRHIRNLVTGDWEEQSRLMDPHVRIEIDINGRKREYHGREDWKYWLDELKRQFDHYEVRLRDFRIQGEYALFRLEESYIIGDKVIEQETELHIDVFNGRIRRVSFSVK”, the protease stability score is reported as 0.956. With “SEDEEEVKHMVDEWWKQVLTGDEESLMRLIDPHAKLDFENVTYHGRDELSRYLTKLLREIRFRDIKIHDVRVYDGKVDLHTHMNIIVDGRTHILDTRMIIVKINGRWYIHQVRIK” the protease stability score was 2.42. “DERKEYVEILVRILIELFLTGDWEHMLRLADPNMRFRIGDKETHGMEEAYKLMEELKEEIRIHEVRLTHIRVYGDFADTETRVHVEVGDKIVDYDMRLHLVVVNGQLRHITIEIE” gave a protease stability score of 0.731. Work on “SETEESLRRYIEDWLTALSTGNEDTLKRLMDPSTRVTVDGVEYHGRSALEEFIKRVDVIHRSDRHDFKIQGEKVHVDVRMDVHIDGQKHTLHSHWLILKINGRWVIHELIFE” yielded a protease stability score of 1.99. Sequence “DEIEEDMRKSIEDVIKAHLTGDEKTYRRLFDPHVRIDIDGVDFHGWEESRRMLQEIRISIEDWKIERMEIQGDKIHIDSRVDLTVYIDGKKERDTIERHIILVKFDGRWTIESVDFR” has a protease stability score of 1.37. With “DEHEEEAIRMLRLIFFLLHTGDWEVMHELFDPHARFTINGRRIHGMEEWLKFLREIRIEDSDIHVKRIDIQGDKMRIKGVVHLEGNVNGRREHTELHIDVHLEKVNGRWIIRLIEFK” the protease stability score was 2.35. Sequence “SEDEELLHKVLNEFIHNVKTGDWEIITRLLDPHALLRVNGVNHIGREDLDRQLKKDFQEMRLHNIHVDDLKIQGEWIHVDTTLDIHINGVRVHFKAHIRVLKIDGRWIVHSREIR” has a protease stability score of 1.32.

Reference: the NTF2 design screens of Basanta et al. (2020)
